This assay addresses mouse Notch1 on CD4+ T cells (mouse) (UniProt Q01705). Nature of the assay: cell-based or functional assay.

Percentage of DLL4hiDC-activated CD4+ T cells with high cleaved intracellular Notch (ICN) data for 1 substance are collected here from patent US20190134169A1.

UniProt Q01705, sequence (Q01705 19-2531): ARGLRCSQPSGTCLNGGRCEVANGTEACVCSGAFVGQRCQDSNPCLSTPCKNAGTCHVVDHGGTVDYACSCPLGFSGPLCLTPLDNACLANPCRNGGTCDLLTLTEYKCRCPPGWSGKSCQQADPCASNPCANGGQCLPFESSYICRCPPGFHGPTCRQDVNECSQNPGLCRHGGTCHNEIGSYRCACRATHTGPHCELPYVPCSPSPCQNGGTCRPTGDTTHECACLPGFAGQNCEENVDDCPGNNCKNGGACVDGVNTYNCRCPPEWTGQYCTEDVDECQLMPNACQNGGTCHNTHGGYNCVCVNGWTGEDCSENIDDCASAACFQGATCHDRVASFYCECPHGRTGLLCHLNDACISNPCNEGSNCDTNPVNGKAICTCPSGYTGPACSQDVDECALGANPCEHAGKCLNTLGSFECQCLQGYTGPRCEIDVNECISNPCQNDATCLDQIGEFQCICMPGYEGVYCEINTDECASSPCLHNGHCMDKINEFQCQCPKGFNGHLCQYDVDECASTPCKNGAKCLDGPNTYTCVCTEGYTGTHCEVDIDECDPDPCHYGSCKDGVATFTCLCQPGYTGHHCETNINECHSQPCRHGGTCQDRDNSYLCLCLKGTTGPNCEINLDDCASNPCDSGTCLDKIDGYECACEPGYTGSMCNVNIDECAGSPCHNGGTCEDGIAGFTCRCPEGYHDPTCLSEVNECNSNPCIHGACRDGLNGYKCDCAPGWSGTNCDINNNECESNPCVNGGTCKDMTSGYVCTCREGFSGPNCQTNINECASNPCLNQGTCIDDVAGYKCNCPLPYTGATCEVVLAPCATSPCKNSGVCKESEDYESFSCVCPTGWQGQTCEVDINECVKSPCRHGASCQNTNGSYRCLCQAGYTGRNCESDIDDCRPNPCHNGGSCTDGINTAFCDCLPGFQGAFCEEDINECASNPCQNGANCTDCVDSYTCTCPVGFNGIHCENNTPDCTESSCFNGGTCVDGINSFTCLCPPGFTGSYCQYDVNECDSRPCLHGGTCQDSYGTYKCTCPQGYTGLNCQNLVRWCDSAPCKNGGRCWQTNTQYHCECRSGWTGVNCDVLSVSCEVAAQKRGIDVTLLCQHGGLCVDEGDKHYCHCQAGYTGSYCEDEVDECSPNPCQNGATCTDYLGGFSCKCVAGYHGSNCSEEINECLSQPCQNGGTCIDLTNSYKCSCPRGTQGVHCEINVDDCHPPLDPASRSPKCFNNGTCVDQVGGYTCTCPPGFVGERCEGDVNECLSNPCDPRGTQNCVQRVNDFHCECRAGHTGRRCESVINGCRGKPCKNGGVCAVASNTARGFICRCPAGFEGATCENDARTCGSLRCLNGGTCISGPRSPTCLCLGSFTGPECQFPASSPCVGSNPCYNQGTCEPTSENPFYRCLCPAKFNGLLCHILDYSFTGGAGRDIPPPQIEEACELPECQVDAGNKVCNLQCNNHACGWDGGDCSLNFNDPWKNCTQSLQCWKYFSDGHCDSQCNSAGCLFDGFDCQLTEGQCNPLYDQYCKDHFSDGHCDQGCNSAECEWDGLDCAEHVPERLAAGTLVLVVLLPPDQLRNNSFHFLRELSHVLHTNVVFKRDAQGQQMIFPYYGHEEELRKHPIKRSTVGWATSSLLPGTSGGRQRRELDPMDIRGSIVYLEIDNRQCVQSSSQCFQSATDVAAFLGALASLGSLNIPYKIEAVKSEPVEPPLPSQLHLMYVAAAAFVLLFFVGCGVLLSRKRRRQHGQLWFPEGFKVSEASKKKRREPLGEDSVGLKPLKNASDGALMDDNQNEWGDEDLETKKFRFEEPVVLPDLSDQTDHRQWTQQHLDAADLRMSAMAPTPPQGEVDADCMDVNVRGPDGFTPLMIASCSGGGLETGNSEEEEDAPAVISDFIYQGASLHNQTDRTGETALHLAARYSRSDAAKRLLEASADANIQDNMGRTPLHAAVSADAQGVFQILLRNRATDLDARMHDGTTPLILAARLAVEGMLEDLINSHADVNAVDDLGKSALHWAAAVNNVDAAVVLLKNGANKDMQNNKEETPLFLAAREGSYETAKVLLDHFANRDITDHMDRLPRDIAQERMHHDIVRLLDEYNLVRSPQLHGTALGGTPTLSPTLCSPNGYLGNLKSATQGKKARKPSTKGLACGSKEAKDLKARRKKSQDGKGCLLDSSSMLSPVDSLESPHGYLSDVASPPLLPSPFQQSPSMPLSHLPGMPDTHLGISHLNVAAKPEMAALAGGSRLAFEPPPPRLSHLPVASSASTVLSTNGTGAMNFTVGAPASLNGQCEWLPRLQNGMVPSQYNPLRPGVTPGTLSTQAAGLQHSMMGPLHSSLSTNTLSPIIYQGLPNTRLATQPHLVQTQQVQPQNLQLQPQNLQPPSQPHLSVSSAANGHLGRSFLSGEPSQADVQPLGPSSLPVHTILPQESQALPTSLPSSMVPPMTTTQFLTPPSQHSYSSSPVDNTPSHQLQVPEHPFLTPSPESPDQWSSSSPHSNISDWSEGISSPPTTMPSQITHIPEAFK

In turn, “mouse delta-like ligand 4 (DLL4) on the surface of DLL4hiDCs (from UniProt Q9JI71 27-686)” gave a percentage of DLL4hiDC-activated CD4+ T cells with high cleaved intracellular Notch (ICN) of 61%.
